# Measurements reported in the domain aggregation screens of Martell et al. (2025).
# Assay: soluble fraction after stress (log2 fold change); higher = more stays soluble; pooled small domains, quantitative proteomics
# Conditions: stress: pH 4
# How it was run: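 After pH 4 stress, pooled custom libraries of small protein domains were quantified with high-throughput quantitative proteomics. Aggregation propensity is taken from the fold change in each domain's soluble amount following the acid stress. The scale is log2, where higher values mean more stayed soluble.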
row,Sequence,soluble fraction (log2)
1,HMDQAEDVLSIPVDALMRGNQVYIKDDTVTEQQGPIPAGFKAVEVETGLISDSYVEIKSGLSEGDTVYVAE,-0.661
2,HMQNAMQKELIDAFQKAYPDLDITKIELVYGTYYEVEAMNSTTEFTYRYDQNSKTFILAEQDNADP,-0.0395
3,HMISKQQRQALILDIIQKQSITSQEALLTELQRHHVMTTQTTVSRDIRALGIVRIKDVNGELSYQQLQ,-0.0545
4,HMDLHERISSVLLGTGKSNDELAQILGVNKNTISAYKNKHGDLKGIVLEGIVKHFDINPVWLLTGSGTR,0.0745
5,HMQESTILPAQKSAISSLATSAGFSSENLKRYLLQNYGVDLKDLTRSQGAEVIKAFQSGNVSKP,0.246
6,HMGNLIIFYDAQTGSAPLLKAVKTSGATLVYEYKNLHGIAIRPSSKTSIEDAIAYFKKVNGVLSVE,0.0783
7,HMPTERLSMRRIRELLRLRFEVGLSTRLIATALGISKGAVGDYLQRAQVAGLGWPLPENLNDAALERRLFP,≥ 0.43
8,HMAMKFQDIVRQKRKELGLTQEQAARRLGVSPAAVSKWESGQSLPDTPLFAPLARLLHTDLNTLLSFE,-0.34
9,HMEQFRENIVRIYMEIDDYENGAKFLEMGNNRDASFYELAGDFYKYFGENELANENYDLAISA,-1.39
10,HMVDIIMDLLEAVAQARPADAFIKSLHIQYQERGGLSKKQLQGLYGKAAKTAGIPPGKLATLEAIILKRP,-0.0377
11,HMTVKNFNDLPGFKNENLAELKAMGITTISELAEALNDGGKIKEIIKNLSGVGPKTAEKWKDAIG,-0.173
12,HMHPQISVEGVLPLKEAVEFVEREIISHAYSRYRATREVARHLGIDPSTVLRKAAKYGITVEPGKN,-0.372
13,HMFPQQGEIRQGVIASITPDQILVNVGTKSEGIISGKELEAISKSERDSLNVDQKIAVYILDPEDSNG,-0.391
14,HMVAGHLQEKNGQFYAVLSYKDTKGKRRTKWVPTGLMVRGNKKRAEAMLNDIRRKFVPPEQED,0.249
15,HMYVTGETIRHLRTQRRMTQEQLAETLGVTGKAVSKWETGRGFPDMSLLEPLARALRISVPELLSGE,0.0292
16,HMTLDDSFYQKADEIIANHTKEERSLIPIIQDIQAEYRYLPPELLTYVAKEIGITDARAYSVASFYENFS,-1.21

row,Sequence,soluble fraction (log2)
1,HMFDGTLSIYPNPSKGIFNLDLLNVKDGEYTITVDNLLGQEVYSEIRNVINSSSKTLDLSNLTKGV,-0.433
2,HMSNFGALLRMRRLEAGLSYRGLAEQSGLARATLVNLEQGLTKPSPLTMRRLASVKALRLTEL,0.00389
3,HMEIFSIEPDSYLGSGEEIASYYREGVTVIVNMAKLSDAESLRMVDFMSGLKLALLGNIKRITKHVYLLTP,-0.966
4,HMKGEKVTKIELSNFIKFLINDLENKGFFNPPEKKDSMIDNIYSIYNKMTLTKKELNMLWGMHKKLK,-0.676
5,HMDRSVTAAELRLAAMDLLARREHGSQELEAKLSRRFHKRHYDVELLRSVIEQLTVEGLLSDERFAVS,-1.07
6,HMTTTSGLIKTIQTGRRKLGMDDETYRALLADVSGGKTSSKDLNAYQLKEVLRRMREAGFRS,0.371
7,HMKRTKLEEATEWLRDRLSDGVKYNGEELLREGESADMARRTLRRAAQELGVIIERERGARGRWFWSLP,0.254
8,HMEDINAVLAENLRRLRESRRLSLDAVARLTGVSKSMLGQIERGEVNPTVSTMWKIAGGLKVNFTALFRRE,≥ 0.43
9,HMTSVFQNSDGTWGHLTKTVNPLIYTIEYGRRTGFSSREEAEESYQRSLTSYQDQLSKLKKERD,0.223
10,HMSVFTDIYHQADHETKLMLIHEIKIVGDEKEFRLLKSIIDSTSNDLSKEANDALNAIKIRLALSK,-1.25
11,HMTSEVPVGSNVRIRASTLAGERDFEGTMLPPAGEGLTTLKLVNGYNLSYPSKDVLDIEFLGGAGE,-0.367
12,HMSDLFKYSPYKTLTEEQYKITYQIIERLKTDLSNGIPRISIIDGGAGTGKSILGIFLLKLLVDAQN,0.321
13,HMNPGAYQVKAGEGLIGLSRRYNVPVDVLASVNNLNTTSSLRVGQTITIPTAAQVNRITQQAQ,0.254
14,HMALHDTLSYEEYLDLGLNGKADSAEKRELVAHALHLGRPNAKTLYKRLNMLQLNRKDVAALLEQ,0.299
15,HMDVEMLIDKYQLNDSEAEVLRFMKKNRQSLKTIGIRDVAKATYVSTATIINMAKKIGYSGYSELVFALGN,-0.319
